Data published in patent publication US20240059739A1, “PEPTIDES FOR INCREASING DRUG DELIVERY TO CANCER” (Chapman University, priority 2022, published 2024).

Experiments:
[1] = tested on: human melanoma cell lines (A375, Sk-mel-28, wm115) compared to normal human HEK-293 cells; assay: Peptide array-whole cell binding assay (CyQUANT fluorescence); assay type: cell-based; conditions: average fluorescent intensity of melanoma cells (A375, Sk-mel-28, wm115) bound to peptide divided by that of HEK-293 cells bound to same peptide
Text: Peptide array synthesis. Fifty-three peptide sequences were synthesized in duplicate on derivatized cellulose membrane (Intavis, Germany) using a ResPep SL Autospot robot. The detailed method was explained previously (Ahmed et al. Anal Chem. 82:7533-7541, 2010; Hossein-Nejad-Ariani et al. Sci Rep. 9:2723, 2019). Briefly, the sequences of peptides were entered in the robot software, and 384 spot synthesis mode was selected for this library. First, the membrane was dipped in DMF for an hour followed by transfer and support to the holder of the robot on filter paper. Then the membrane was washed with ethanol and subjected to a vacuum to remove any bubbles under the membrane. The Fmoc strategy was used for peptide synthesis. DIC and Oxyma pure were used as coupling reagent and racemization suppressor, respectively. After each coupling, capping of unreacted amino acids was done using acetic anhydride (3%), followed by 20% piperidine for Fmoc deprotection. The C-terminal end of all peptides were bound to the membrane. Following the synthesis, the membrane was dipped in deprotection solution containing 15 mL TFA, 15 mL DCM, 900 μL TIPS, and 600 μL water, and kept for 3 h at room temperature. Next, membranes were thoroughly washed with DCM, DMF, and ethanol. Finally, they were air dried and kept in a sealed bag at −20° C. until use.
Peptide array cell binding assay. The sequential steps of the assay are as described in a previous publication (Ahmed et al. 2010; Soudy et al. J Med Chem. 54:7523-7534, 2011). The membrane was dipped in ethanol for 30 sec to remove any precipitation of hydrophobic peptides. Then the membrane was dipped in sterile PBS at pH 7.4 for 30 min. The cells (75×10^3 cells/mL) were seeded directly on the membrane in a sterile plate and incubated at 37° C. for 4 h. After washing off the unbound cells with sterile PBS, pH 7.4, the membrane was frozen at −80° C. for 2 h. Subsequently, it was defrosted at room temperature and incubated in CyQUANT solution at 37° C. for 30 min following the manufacturer's protocol. The membrane was then washed with sterile PBS and air-dried.
Membranes were scanned using the ChemiDoc™ XRS+system (Bio-Rad) to analyze the fluorescence intensity of each spot. The setting was adjusted based on the excitation and emission wavelength of the CyQUANT dye at 465 nm and 535 nm, respectively. The fluorescence intensity (FI) was normalized by the FI of non-cancerous HEK-293 cells.
A library of 53 peptides was synthesized in an array format on a cellulose membrane using SPOT synthesis (Table 1). The peptide library was designed starting with five lead cancer cell targeting peptides, Arg peptide (1, Table 1), p160 analogue (11), RGD (16), GE11 (20), and LSD (37). Conservative substitutions, deletion from the N- or C-terminus, alanine scan, and scrambling of amino acids were used to design the analogues for the library. The peptides were screened for specific binding to three human melanoma cell lines. The cells were incubated with the cellulose membranes with conjugated peptides followed by incubation with CyQUANT fluorescence dye. A brief schematic for the peptide array-whole cell binding assay for screening peptides with high affinity for melanoma cells is shown in FIG. 2A. The relative cell adhesion capacities of the peptides to A375 (FIG. 2B), Sk-mel-28 (FIG. 2C), and wm115 were estimated based on the fluorescence of the bound melanoma cells compared to normal human HEK-293 cells.

[2] = Serum stability (RP-HPLC AUC of intact peptide); assay type: in vitro ADME; conditions: human serum; data not shown
Procedure: Serum stability. Human serum (250 μL) was thawed to room temperature and was added to DMEM media (650 μL). The mixture was kept in a 37° C. incubator to mimic human body temperature for 15 min. The peptide (100 μL, 1 mM) was dissolved (dispersed) in sterile water. The peptide solution was added to the pre-warmed human serum and DMEM mixture. The mixture was incubated at 37° C. At different time points (0, 0.5, 1, 5, and 24 h) aliquots (100 μL) were removed and added to methanol (200 μL). Each time point sample was kept at 4° C. for 5 min and then was centrifuged at 500×g for 15 min to separate serum proteins. The supernatant was injected into the RP-HPLC, and the major peaks were collected. The peak's mass was determined using MALDI-TOF mass analysis. The serum stabilities of the D-aa KK-11 were determined by comparing the HPLC peaks (AUC) for the intact peptides at different time points.
For in vivo studies, peptide KK-11 was labeled with a fluorescent Vivotag 680 XL in the N-terminus (Scheme 1). In addition, two amino acids in the sequence (norleucine and arginine) were substituted with D-amino acids to increase proteolytic stability. These amino acids were identified as proteolytically labile sites. The D-aa KK-11 peptide was assembled on acid-labile Rink amide resin and was characterized. The proteolytic stability of the D-aa KK-11 peptide was evaluated by incubating with human serum. The presence of the intact peptide after incubation with human serum for different time periods was detected using RP-HPLC and confirmed by MALDI-TOF mass analysis. […] However, peptide KK-11 with all L-amino acids reduced to an undetectable level within 30 min (data not shown). For conjugating VivoTag 680 XL dye, the peptide was modified by incorporating a β-alanine moiety generating the precursor Aβ-KK-11. The structure and mass of Aβ-KK-11 were confirmed by NMR (^1H and ^13C) and MALDI-TOF [M+H]^+ 1588.5 Da. Next, the β-alanine terminal amino group was allowed to react with the succinimidyl ester group of the reactive fluorophore (VivoTag 680 XL) under basic conditions in polar aprotic solvent, generating the fluorescently labeled peptide with extrusion of N-hydroxysuccinimide (NHS) (Scheme 1). The mass of the fluorescence-labeled VivoTag-Aβ-KK-11 was confirmed by MALDI-TOF, showing a peak at 2823.4 Da, corresponding to [M+H]^+.

A375 melanoma cells = assay: In vitro cytotoxicity detected by MTT colorimetric assay; assay type: cell-based, human; conditions: in vitro
Procedure: The bar represents the average fluorescence density of three cell lines (A375, Sk-mel-28, and wm3211 cells) detected by fluorescence-activated cell sorting (FACS) analysis. The cells were incubated with FITC-labeled peptide for […] at 37° C. (0.5 μM, grey bar; 1 μM, dark bar). The control is cells incubated with FITC alone. […] Cells were either treated with DOX or co-treated with DOX and KK-11 (1 μM) for 72 h (KK-11+DOX) or pretreated with KK-11 for 4 h, then washed away following a DOX 72 h treatment (KK-11 to DOX). Control is DMSO or KK-11 alone. Cell viability was detected by a MTT colorimetric assay. Statistical analysis was performed with a student's t-test, and error bars denote mean±SD; **, p<0.01; ***, p<0.001 compared to DOX alone. […] Cells were treated with MAC-3-190 at various concentrations with or without 1 μM KK-11 for 72 h. Cell viability was detected by MTT assay. The assays were repeated independently at least three times.
In vitro cytotoxicity detected by MTT colorimetric assay. Cells were seeded in a 96-well plate and allowed to adhere overnight prior to adding the compound. After 72 h of treatment in serum-free media, an MTT solution was added to each well to give a final concentration of 0.5 mg/mL and was incubated for 3 h. Formed crystals were solubilized, and the absorbance was measured at 595 nm.

[3] = tested on: A375 human melanoma xenograft; assay: In vivo xenograft melanoma mouse model
Procedure: FIG. 5A; the tumors were measured three times a week using digital Vernier calipers. Tumor volume (mm^3) was calculated as [Length×(Width^2)/2. […] FIG. 5C; the body weights of the mice were measured after 21 days of treatment. Statistical analysis was performed with student's t-test and error bars denote mean±SD: *, p<0.05 compared to control group.
In vivo xenograft melanoma mouse model. Nude mice (Nu/Nu) were purchased from Charles River (Wilmington, MA) and were housed and maintained in the Chapman University vivarium under pathogen-free conditions. A375 cells were suspended in cold Matrigel and injected subcutaneously into the flank of each mouse (1×10^6 cells per mouse) to establish tumors. […] For the co-treatment, the solution of D-aa KK-11 and MAC-3-190 (1:11 molar ratio) was mixed gently and incubated at room temperature for 30 min before injection via tail vein. The growth of the tumors was monitored three times a week and measured using digital Vernier calipers. The tumor volume (mm^3) was calculated as [Length×(Width^2)]/2 (in mm). The mice were sacrificed after 21 days per IACUC policy when the control group's average tumor size reached 2,000 mm^3. Tumor xenografts were removed and weighed.

[4] = tested on: human primary glioma U87 cells; assay: Binding to glioma cells (data not shown); assay type: cell-based

## VPWXEPAYQRFL [Peptide 11, X stands for norleucine]
[1]
  Fluorescence Ratio: 1.80
[2]
  time until reduced to an undetectable level: ≤ 30 min
A375 melanoma cells
  cytotoxicity of peptide alone: No cytotoxicity
[3]
  toxicity of peptide alone in vivo: No cytotoxicity
[4]
  binding to U87 cells: can also bind
